Broadly, the IC50 is the point on the concentration scale where inhibition reaches its midpoint.

Numbered stars: 1 amine (or outer) side, 2 acyl side, 3 side chain; on linkers, the order of the positions; unused ones are H or OH. Bridge positions count the residues as written; N and C are the ends. Side chains are listed from the residue outwards. Ends that are not written are not given here. * marks the point of attachment. C20 diacid = O=C(O)CCCCCCCCCCCCCCCCCCC(=O)*; γGlu = O=C(O)[C@H](CCC(=O)[*:2])N[*:1]; AEEA = NCCOCCOCC(=O)O

Data on four molecules can be found in patent US20140087995A1 (published 2014).

In test [1] the target is T1, rat calcitonin receptor (rat, UniProt P32214 25-516).
T1 construct: whole, on cells; Used as membranes prepared from BHK tk'ts 13 cells transiently transfected with the rat calcitonin receptor (Assay VIII); also called rCTR; rat calcitonin (a) receptor
T1 sequence (looked up): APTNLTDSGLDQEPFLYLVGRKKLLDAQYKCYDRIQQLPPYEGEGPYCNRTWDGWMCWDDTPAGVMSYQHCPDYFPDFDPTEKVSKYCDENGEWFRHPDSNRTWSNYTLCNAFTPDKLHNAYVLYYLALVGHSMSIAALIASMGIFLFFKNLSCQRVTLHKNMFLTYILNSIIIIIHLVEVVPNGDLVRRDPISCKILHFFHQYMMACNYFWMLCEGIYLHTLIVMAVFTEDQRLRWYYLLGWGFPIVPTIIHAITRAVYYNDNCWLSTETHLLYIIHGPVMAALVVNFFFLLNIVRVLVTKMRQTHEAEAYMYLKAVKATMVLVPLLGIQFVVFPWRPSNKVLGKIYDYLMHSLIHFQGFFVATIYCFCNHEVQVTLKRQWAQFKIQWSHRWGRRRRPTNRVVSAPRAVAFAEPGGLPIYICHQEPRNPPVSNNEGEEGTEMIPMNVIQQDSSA
In words: IC50 on rat CTR divided by IC50 on rat amylin receptor (Assays VIII/VI).

For test [2], the target named is T1, rat calcitonin receptor. In words: SPA competition with 125I-calcitonin, membranes of BHK cells with rat CTR (Assay VIII).
Test [3] addresses T2, human calcitonin receptor (human, UniProt P30988 25-474).
T2 construct: whole, on cells; Used as membranes prepared from a BHK tk'ts 13 cell line stably transfected with the human calcitonin receptor (Assay VII); also called hCTR; hCT
T2 sequence (looked up): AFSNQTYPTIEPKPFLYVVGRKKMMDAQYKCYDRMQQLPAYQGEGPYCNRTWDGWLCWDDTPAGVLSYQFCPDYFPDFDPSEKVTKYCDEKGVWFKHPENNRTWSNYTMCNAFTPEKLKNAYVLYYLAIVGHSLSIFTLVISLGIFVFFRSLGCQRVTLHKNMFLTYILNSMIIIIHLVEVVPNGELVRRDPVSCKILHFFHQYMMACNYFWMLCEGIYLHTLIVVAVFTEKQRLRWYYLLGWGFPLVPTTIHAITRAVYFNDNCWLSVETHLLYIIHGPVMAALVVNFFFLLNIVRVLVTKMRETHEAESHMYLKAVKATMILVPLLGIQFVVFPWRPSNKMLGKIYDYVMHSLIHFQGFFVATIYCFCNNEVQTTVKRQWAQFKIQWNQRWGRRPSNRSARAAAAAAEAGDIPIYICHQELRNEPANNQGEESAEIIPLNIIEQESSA
In words: IC50 on human CTR divided by IC50 on human amylin receptor (Assays VII/V). In a few lines: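 Competition binding by SPA uses membrane preparations (35 ng/μL final) in pH 7.4 Hepes buffer with 1 mM CaCl2 and 5 mM MgCl₂. Incubation lasts 120 min at 25° C, and IC₅₀ comes from one-site fitting.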

Test [4] has as its target T3, rat amylin receptor (rat calcitonin receptor + rat RAMP 3) (rat, UniProt P32214 25-516; Q9JJ73 23-147).
T3 construct: whole, on cells; Used as membranes prepared from BHK tk'ts 13 cells transiently transfected with rat calcitonin receptor and rat RAMP 3 (Assay VI); also called rAmylin-R; rat amylin 3(a) receptor
T3 sequence (looked up) 1: T1 sequence (looked up)
T3 sequence (looked up) 2: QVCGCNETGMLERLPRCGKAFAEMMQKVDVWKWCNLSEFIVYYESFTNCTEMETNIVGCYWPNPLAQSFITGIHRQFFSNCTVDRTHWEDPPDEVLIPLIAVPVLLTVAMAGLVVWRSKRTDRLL
The test can be described thus: SPA competition with 125I-rat amylin, membranes of BHK cells with rat CTR + rat RAMP3 (Assay VI).

B1: N^ε1-[2-[2-[2-[[(4S)-4-carboxy-4-(19-carboxynonadecanoylamino)butanoyl]amino]ethoxy]ethoxy]acetyl]-[His14,Arg17,Pro21,Pro27,Pro31]-h-amylin (peptide)
peptide: K([AEEA-γGlu-C20 diacid])CNTATCATQRLAHFLRHSSPNFGAIPSSTPVGSNTY-NH2
modifications: disulfide 2-7; N-terminus assumed
SMILES: CC[C@H](C)[C@H](NC(=O)[C@H](C)NC(=O)CNC(=O)[C@H](Cc1ccccc1)NC(=O)[C@H](CC(N)=O)NC(=O)[C@@H]1CCCN1C(=O)[C@H](CO)NC(=O)[C@H](CO)NC(=O)[C@H](Cc1c[nH]cn1)NC(=O)[C@H](CCCNC(=N)N)NC(=O)[C@H](CC(C)C)NC(=O)[C@H](Cc1ccccc1)NC(=O)[C@H](Cc1c[nH]cn1)NC(=O)[C@H](C)NC(=O)[C@H](CC(C)C)NC(=O)[C@H](CCCNC(=N)N)NC(=O)[C@H](CCC(N)=O)NC(=O)[C@@H](NC(=O)[C@H](C)NC(=O)[C@@H]1CSSC[C@H](NC(=O)[C@@H](N)CCCCNC(=O)COCCOCCNC(=O)CC[C@H](NC(=O)CCCCCCCCCCCCCCCCCCC(=O)O)C(=O)O)C(=O)N[C@@H](CC(N)=O)C(=O)N[C@@H]([C@@H](C)O)C(=O)N[C@@H](C)C(=O)N[C@@H]([C@@H](C)O)C(=O)N1)[C@@H](C)O)C(=O)N1CCC[C@H]1C(=O)N[C@@H](CO)C(=O)N[C@@H](CO)C(=O)N[C@H](C(=O)N1CCC[C@H]1C(=O)N[C@H](C(=O)NCC(=O)N[C@@H](CO)C(=O)N[C@@H](CC(N)=O)C(=O)N[C@H](C(=O)N[C@@H](Cc1ccc(O)cc1)C(N)=O)[C@@H](C)O)C(C)C)[C@@H](C)O
notes: Analogue of human amylin; also called compound 61
For B1, in the test with rat calcitonin receptor [1], the “Ratio rCT/rAmylin binding” value amounted to 39.7. Further, the IC50 with rat calcitonin receptor [2] was determined as 33.4 nM; in test [4] it was 0.842 nM. Further, the “Ratio hCT/hAmylin binding” value in test [3] turned out to be 66.7.

B2: N^ε1-[2-[2-[2-[[(4S)-4-carboxy-4-(19-carboxynonadecanoylamino)butanoyl]amino]ethoxy]ethoxy]acetyl]-[His14,Arg17,Pro21,Pro27,Pro34]-h-amylin (peptide)
peptide: K([AEEA-γGlu-C20 diacid])CNTATCATQRLAHFLRHSSPNFGAIPSSTNVGPNTY-NH2
modifications: disulfide 2-7; N-terminus assumed
SMILES: CC[C@H](C)[C@H](NC(=O)[C@H](C)NC(=O)CNC(=O)[C@H](Cc1ccccc1)NC(=O)[C@H](CC(N)=O)NC(=O)[C@@H]1CCCN1C(=O)[C@H](CO)NC(=O)[C@H](CO)NC(=O)[C@H](Cc1c[nH]cn1)NC(=O)[C@H](CCCNC(=N)N)NC(=O)[C@H](CC(C)C)NC(=O)[C@H](Cc1ccccc1)NC(=O)[C@H](Cc1c[nH]cn1)NC(=O)[C@H](C)NC(=O)[C@H](CC(C)C)NC(=O)[C@H](CCCNC(=N)N)NC(=O)[C@H](CCC(N)=O)NC(=O)[C@@H](NC(=O)[C@H](C)NC(=O)[C@@H]1CSSC[C@H](NC(=O)[C@@H](N)CCCCNC(=O)COCCOCCNC(=O)CC[C@H](NC(=O)CCCCCCCCCCCCCCCCCCC(=O)O)C(=O)O)C(=O)N[C@@H](CC(N)=O)C(=O)N[C@@H]([C@@H](C)O)C(=O)N[C@@H](C)C(=O)N[C@@H]([C@@H](C)O)C(=O)N1)[C@@H](C)O)C(=O)N1CCC[C@H]1C(=O)N[C@@H](CO)C(=O)N[C@@H](CO)C(=O)N[C@H](C(=O)N[C@@H](CC(N)=O)C(=O)N[C@H](C(=O)NCC(=O)N1CCC[C@H]1C(=O)N[C@@H](CC(N)=O)C(=O)N[C@H](C(=O)N[C@@H](Cc1ccc(O)cc1)C(N)=O)[C@@H](C)O)C(C)C)[C@@H](C)O
notes: Analogue of human amylin; also called compound 68
With B2, in the test with rat calcitonin receptor [1], the “Ratio rCT/rAmylin binding” value amounted to 122. The IC50 with rat calcitonin receptor [2] worked out at 28.5 nM; in test [4], 0.234 nM. The “Ratio hCT/hAmylin binding” value in test [3] was found to be 64.4.

B3: N^ε1-[2-[2-[2-[[(4S)-4-carboxy-4-(19-carboxynonadecanoylamino)butanoyl]amino]ethoxy]ethoxy]acetyl]-[Lys14,Arg17,Pro21,Pro27,Pro31]-h-amylin (peptide)
peptide: K([AEEA-γGlu-C20 diacid])CNTATCATQRLAKFLRHSSPNFGAIPSSTPVGSNTY-NH2
modifications: disulfide 2-7; N-terminus assumed
SMILES: CC[C@H](C)[C@H](NC(=O)[C@H](C)NC(=O)CNC(=O)[C@H](Cc1ccccc1)NC(=O)[C@H](CC(N)=O)NC(=O)[C@@H]1CCCN1C(=O)[C@H](CO)NC(=O)[C@H](CO)NC(=O)[C@H](Cc1c[nH]cn1)NC(=O)[C@H](CCCNC(=N)N)NC(=O)[C@H](CC(C)C)NC(=O)[C@H](Cc1ccccc1)NC(=O)[C@H](CCCCN)NC(=O)[C@H](C)NC(=O)[C@H](CC(C)C)NC(=O)[C@H](CCCNC(=N)N)NC(=O)[C@H](CCC(N)=O)NC(=O)[C@@H](NC(=O)[C@H](C)NC(=O)[C@@H]1CSSC[C@H](NC(=O)[C@@H](N)CCCCNC(=O)COCCOCCNC(=O)CC[C@H](NC(=O)CCCCCCCCCCCCCCCCCCC(=O)O)C(=O)O)C(=O)N[C@@H](CC(N)=O)C(=O)N[C@@H]([C@@H](C)O)C(=O)N[C@@H](C)C(=O)N[C@@H]([C@@H](C)O)C(=O)N1)[C@@H](C)O)C(=O)N1CCC[C@H]1C(=O)N[C@@H](CO)C(=O)N[C@@H](CO)C(=O)N[C@H](C(=O)N1CCC[C@H]1C(=O)N[C@H](C(=O)NCC(=O)N[C@@H](CO)C(=O)N[C@@H](CC(N)=O)C(=O)N[C@H](C(=O)N[C@@H](Cc1ccc(O)cc1)C(N)=O)[C@@H](C)O)C(C)C)[C@@H](C)O
notes: Analogue of human amylin; also called compound 74
For B3, the “Ratio rCT/rAmylin binding” value with rat calcitonin receptor [1] is 22.3. The figures for the IC50 (with rat calcitonin receptor [2]; in test [4]) were 109 nM and 4.89 nM, respectively. Further, the “Ratio hCT/hAmylin binding” value in test [3] is 101.

B4: N^ε1-[2-[2-[2-[[(4S)-4-carboxy-4-(19-carboxynonadecanoylamino)butanoyl]amino]ethoxy]ethoxy]acetyl]-[His14,Arg17,Pro21,Pro27]-h-amylin (peptide)
peptide: K([AEEA-γGlu-C20 diacid])CNTATCATQRLAHFLRHSSPNFGAIPSSTNVGSNTY-NH2
modifications: disulfide 2-7; N-terminus assumed
SMILES: CC[C@H](C)[C@H](NC(=O)[C@H](C)NC(=O)CNC(=O)[C@H](Cc1ccccc1)NC(=O)[C@H](CC(N)=O)NC(=O)[C@@H]1CCCN1C(=O)[C@H](CO)NC(=O)[C@H](CO)NC(=O)[C@H](Cc1c[nH]cn1)NC(=O)[C@H](CCCNC(=N)N)NC(=O)[C@H](CC(C)C)NC(=O)[C@H](Cc1ccccc1)NC(=O)[C@H](Cc1c[nH]cn1)NC(=O)[C@H](C)NC(=O)[C@H](CC(C)C)NC(=O)[C@H](CCCNC(=N)N)NC(=O)[C@H](CCC(N)=O)NC(=O)[C@@H](NC(=O)[C@H](C)NC(=O)[C@@H]1CSSC[C@H](NC(=O)[C@@H](N)CCCCNC(=O)COCCOCCNC(=O)CC[C@H](NC(=O)CCCCCCCCCCCCCCCCCCC(=O)O)C(=O)O)C(=O)N[C@@H](CC(N)=O)C(=O)N[C@@H]([C@@H](C)O)C(=O)N[C@@H](C)C(=O)N[C@@H]([C@@H](C)O)C(=O)N1)[C@@H](C)O)C(=O)N1CCC[C@H]1C(=O)N[C@@H](CO)C(=O)N[C@@H](CO)C(=O)N[C@H](C(=O)N[C@@H](CC(N)=O)C(=O)N[C@H](C(=O)NCC(=O)N[C@@H](CO)C(=O)N[C@@H](CC(N)=O)C(=O)N[C@H](C(=O)N[C@@H](Cc1ccc(O)cc1)C(N)=O)[C@@H](C)O)C(C)C)[C@@H](C)O
notes: Analogue of human amylin; also called compound 69
For the molecule B4, the “Ratio rCT/rAmylin binding” value with rat calcitonin receptor [1] is 104. In addition, the results for the concentration for half-maximal inhibition (IC50) (in the test with rat calcitonin receptor [2]; in test [4]) were 46.8 nM and 0.45 nM, respectively. In addition, in test [3], the “Ratio hCT/hAmylin binding” value amounted to 65.3.
